Data on one substance can be found in paper doi:10.1101/2020.11.02.20223404.

The target in the assay is angiotensin-converting enzyme 2 (ACE2) (human) (UniProt Q9BYF1). As to the kind of experiment: other fluorescence titration.
UniProt Q9BYF1, sequence (Q9BYF1 18-805): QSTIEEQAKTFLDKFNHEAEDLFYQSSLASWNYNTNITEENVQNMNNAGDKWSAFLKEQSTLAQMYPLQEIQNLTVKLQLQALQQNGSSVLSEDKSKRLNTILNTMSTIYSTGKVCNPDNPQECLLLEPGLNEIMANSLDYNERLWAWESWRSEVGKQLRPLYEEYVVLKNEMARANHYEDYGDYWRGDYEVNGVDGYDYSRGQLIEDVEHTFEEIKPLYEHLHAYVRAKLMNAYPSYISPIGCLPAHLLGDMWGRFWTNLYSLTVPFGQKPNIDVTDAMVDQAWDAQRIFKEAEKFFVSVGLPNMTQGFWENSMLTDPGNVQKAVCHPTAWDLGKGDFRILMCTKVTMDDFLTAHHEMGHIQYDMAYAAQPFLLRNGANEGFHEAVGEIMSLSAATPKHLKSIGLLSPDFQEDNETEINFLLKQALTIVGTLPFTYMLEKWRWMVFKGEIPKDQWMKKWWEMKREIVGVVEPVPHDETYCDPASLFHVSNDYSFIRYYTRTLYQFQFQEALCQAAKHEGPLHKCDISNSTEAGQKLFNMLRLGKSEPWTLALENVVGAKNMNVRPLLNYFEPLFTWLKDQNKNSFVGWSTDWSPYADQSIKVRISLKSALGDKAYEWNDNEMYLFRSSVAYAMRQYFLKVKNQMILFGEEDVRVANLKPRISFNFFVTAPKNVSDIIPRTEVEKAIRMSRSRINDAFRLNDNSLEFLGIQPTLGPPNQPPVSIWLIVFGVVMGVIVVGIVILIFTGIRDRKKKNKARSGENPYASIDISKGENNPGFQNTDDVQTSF

Consider “SARS-CoV-1 spike receptor-binding domain (S RBD) (domain or fragment)”, for which the ΔF/F0 of the 1130 nm SWCNT emission peak after 90 min, 10 mg/L worked out at 88.4%.
